Assay [1] deals with T1, PRAME peptide on HLA-A*24:02 (human).
T1 peptide: LYVDSLFFL
The assay can be described thus: multimer staining.

Assay [2] addresses T2, XXYLT1 peptide on HLA-A*24:02 (human).
T2 peptide: YYSDSIFFL
Put plainly: cytokine release.

For assay [3], the target named is T3, KCNK12 peptide on HLA-A*24:02 (human).
T3 peptide: DYVDSLYFC
Put plainly: cytokine release.

Assay [4] has as its target T4, GTPBP6 peptide on HLA-A*24:02 (human).
T4 peptide: LYVDTIGFL
Put plainly: cytokine release.

In assay [5] the target is T5, CATSPERB peptide on HLA-A*24:02 (human).
T5 peptide: LYYDHLGFL
The assay can be described thus: cytokine release.

For assay [6], the target named is T6, FBXO24 peptide on HLA-A*24:02 (human).
T6 peptide: DYVGTLFFL
The assay can be described thus: cytokine release.

Assay [7] has as its target T7, PRAME peptide on HLA-A*02:17 (human).
T7 peptide: LYVDSLFFL
The assay can be described thus: cytokine release.

B1: TCR T402-93 (TCR, V domains shown)
Valpha: GQQVMQIPQYQHVQEGEDFTTYCNSSTTLSNIQWYKQRPGGHPVFLIQLVKSGEVKKQKRLTFQFGEAKKNSSLHITATQTTDVGTYFCAGALPRAGSYQLTFGKGTKLSVIP
Vbeta: SQTIHQWPATLVQPVGSPLSLECTVEGTSNPNLYWYRQAAGRGLQLLFYSVGIGQISSEVPQNLSASRPQDRQFILSSKKLLLSDSGFYLCAWSLGAGYTDTQYFGPGTRLTVL
Take B1: the binding result in assay [1] is recorded as “recognises”; in assay [2], “recognises”; in assay [3] it was “recognises”; in assay [4] it was “recognises”; in assay [5], “recognises”; in assay [6] it was “no recognition”.

B2: TCR T116-49 (TCR, V domains shown)
Valpha: QQPVQSPQAVILREGEDAVINCSSSKALYSVHWYRQKHGEAPVFLMILLKGGEQKGHEKISASFNEKKQQSSLYLTASQLSYSGTYFCGTANSGGSNYKLTFGKGTLLTVNP
Vbeta: DAGITQSPRHKVTETGTPVTLRCHQTENHRYMYWYRQDPGHGLRLIHYSYGVKDTDKGEVSDGYSVSRSKTEDFLLTLESATSSQTSVYFCAISDYEGTEAFFGQGTRLTVV
For the molecule B2, the binding result in assay [1] is reported as “recognises”; in assay [2] it was “no recognition”; in assay [7], “recognises”; in assay [3], “no recognition”; in assay [4], “no recognition”; in assay [5] it was “no recognition”. In assay [6], the binding result was “recognises”.

The values above are taken from patent US20230340065A1 (published 2023).
